Experimental findings from US6884600B1, “Protein phosphatase-1 catalytic subunit interactions” (Medical Research Council London, priority 1996, dated 2005) are described below.

Data set [1] deals with T1, PP1c (Oryctolagus cuniculus, UniProt P62143).
T1 construct: from tissue; host or cells: rabbit skeletal muscle (PP1G dissociated with LiBr)
Kind of data set: MLC20 (myosin P-light chain) phosphatase activity of PP1c. The data set is classed as biochemical. The method, then:
A,B; Effects of M110-(M1-E309) (closed circles), M110-(M1-F38) (open circles) and M110-(D39-E309) (open triangles) on the MLC20 phosphatase […] and phosphorylase phosphatase (B) activities of PP1c were measured after incubating PP1c for 15 minutes at 30° C. with each fragment. The results are presented as a percentage of those obtained in experiments where the M110 fragments were omitted.
C,D; The effect of M110-(M1-A150) (open circles) and M110-(L24-Y496) (closed circles) on the MLC20 phosphatase (C) and phosphorylase phosphatase (D) activities of PP1c were measured as in A,B.
(A) The MLC20 phosphatase activity of PP1c was assayed after incubation for 15 minutes at 30° C. in the presence or absence of 1 μM GM-(G63-T93) and either 0.1 μM M110-(M1-F38) or 0.1 nM M110-(M1-E309).
(1-38, open circles) or M110[M1-K35] (1-35, closed circles) were incubated with PP1c for 15 min at 30° C. and reactions started with the ^32P-labelled MLC20 substrate. The results are expressed as a % of the activity determined in control incubations where the M110 peptides were omitted (100%). Similar results were obtained in three separate experiments.
The myosin-associated form of PP1 (PP1M) was from chicken gizzard and the glycogen-associated form of PP1 (PP1G) from rabbit skeletal muscle. The β isoform of PP1c was released from PP1G by incubation for 2 hours in 2M LiBr, then purified by gel-filtration on a 30×1 cm column of Superose 12 (Pharmacia, Milton Keynes, U.K.) in the presence of 0.5M LiBr. Glycogen protein particles from rat liver were used as the source of hepatic PP1G Digoxygenin-labelled PP1c (γ1-isoform, hereafter termed PP1) was prepared as in [9]. GL was expressed in E. coli as a glutathione-S-transferase (GST) fusion protein [7], termed GST-GL. The catalytic subunit of PP2A from bovine heart (PP2AC) was provided by Dr R. MacKintosh in this Unit. The phosphorylatable myosin light chain (MLC20) and heavy meromyosin from chicken gizzard were a gift from Dr M. Ikebe (Case Western Reserve University, Cleveland, USA). Thrombin and benzamidine-Agarose were purchased from Sigma (Poole, UK).
^32P-labelled rabbit skeletal muscle phosphorylase a (containing 1.0 mol phosphate per mol subunit) was prepared by phosphorylation with phosphorylase kinase, ^32P-labelled rabbit skeletal muscle glycogen synthase (containing 1.5 mol/mol subunit in the sites 3 region) was prepared by phosphorylation with glycogen synthase kinase-3 [24]). ^32P-labelled chicken gizzard MLC20 and ^32P-labelled chicken gizzard heavy meromyosin (containing 1.0 mol phosphate per mol subunit) were prepared by phosphorylation with smooth muscle myosin light chain kinase. The dephosphorylation of phosphorylase a (10 μM), glycogen synthase (1 μM) and MLC20 (1 μM) and heavy meromyosin (1 μM) was carried out as in [24]. One unit of activity (U) was that amount which released […] of phosphate in one minute.
PP1c was isolated from the rabbit skeletal muscle PP1-GM complex as described previously (Johnson et al, 1996). Glycogen particles isolated from rat liver (Schelling el al, 1988) served as the source of PP1-GL. The dephosphorylation of glycogen phosphorylase (10 μM) and the isolated MLC20 of smooth muscle myosin (1 μM) by PP1c was carried out as described previously (Cohen et al., 1988; Alessi et al., 1992).
^32P-labelled myosin P-light chains containing 1.0 mol phosphate per mol subunit was prepared by phosphorylation with smooth muscle myosin light chain kinase. The dephosphorylation of myosin P-light chain (1 μM) was carried out as in [4] and one unit of activity (U) was that amount which catalysed the release of 1 μmole of phosphate in one min. When assaying PP1M in immunoprecipitates from the myofibrillar extracts, the tubes were shaken continuously and 3 nM okadaic acid was included to inhibit any PP2A present.

Data set [2] addresses T2, myosin (Gallus gallus, UniProt P10587).
T2 construct: from tissue; host or cells: chicken gizzard
Kind of data set: Myosin binding assay (pelleting with myosin). Also noted: species or system chicken. To be noted: myosin 1 μM, 15 min 0° C. In outline:
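PP1M, PP1c, PP1M(ΔM21) or M110 fragments (30 nM; M110 fragments and M21 at 100 nM) incubated 15 min at 0° C with 1 μM myosin in 10 mM Hepes pH 7.5, 50 mM KCl, 5 mM MgCl2, then centrifuged 2 min at 13,000×g. Supernatant, pellet and total analysed by immunoblot or P-light chain phosphatase activity.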

T1 sequence (P62143 whole entry): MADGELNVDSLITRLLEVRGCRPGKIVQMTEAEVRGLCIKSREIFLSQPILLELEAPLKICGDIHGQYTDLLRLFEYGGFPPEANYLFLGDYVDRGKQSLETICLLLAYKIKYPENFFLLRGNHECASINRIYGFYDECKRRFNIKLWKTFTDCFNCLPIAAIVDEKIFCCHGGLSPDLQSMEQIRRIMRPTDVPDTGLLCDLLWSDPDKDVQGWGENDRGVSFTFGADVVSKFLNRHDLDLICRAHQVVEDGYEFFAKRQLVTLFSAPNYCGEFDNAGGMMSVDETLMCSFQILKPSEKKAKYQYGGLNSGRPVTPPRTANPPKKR
T2 sequence (P10587 whole entry): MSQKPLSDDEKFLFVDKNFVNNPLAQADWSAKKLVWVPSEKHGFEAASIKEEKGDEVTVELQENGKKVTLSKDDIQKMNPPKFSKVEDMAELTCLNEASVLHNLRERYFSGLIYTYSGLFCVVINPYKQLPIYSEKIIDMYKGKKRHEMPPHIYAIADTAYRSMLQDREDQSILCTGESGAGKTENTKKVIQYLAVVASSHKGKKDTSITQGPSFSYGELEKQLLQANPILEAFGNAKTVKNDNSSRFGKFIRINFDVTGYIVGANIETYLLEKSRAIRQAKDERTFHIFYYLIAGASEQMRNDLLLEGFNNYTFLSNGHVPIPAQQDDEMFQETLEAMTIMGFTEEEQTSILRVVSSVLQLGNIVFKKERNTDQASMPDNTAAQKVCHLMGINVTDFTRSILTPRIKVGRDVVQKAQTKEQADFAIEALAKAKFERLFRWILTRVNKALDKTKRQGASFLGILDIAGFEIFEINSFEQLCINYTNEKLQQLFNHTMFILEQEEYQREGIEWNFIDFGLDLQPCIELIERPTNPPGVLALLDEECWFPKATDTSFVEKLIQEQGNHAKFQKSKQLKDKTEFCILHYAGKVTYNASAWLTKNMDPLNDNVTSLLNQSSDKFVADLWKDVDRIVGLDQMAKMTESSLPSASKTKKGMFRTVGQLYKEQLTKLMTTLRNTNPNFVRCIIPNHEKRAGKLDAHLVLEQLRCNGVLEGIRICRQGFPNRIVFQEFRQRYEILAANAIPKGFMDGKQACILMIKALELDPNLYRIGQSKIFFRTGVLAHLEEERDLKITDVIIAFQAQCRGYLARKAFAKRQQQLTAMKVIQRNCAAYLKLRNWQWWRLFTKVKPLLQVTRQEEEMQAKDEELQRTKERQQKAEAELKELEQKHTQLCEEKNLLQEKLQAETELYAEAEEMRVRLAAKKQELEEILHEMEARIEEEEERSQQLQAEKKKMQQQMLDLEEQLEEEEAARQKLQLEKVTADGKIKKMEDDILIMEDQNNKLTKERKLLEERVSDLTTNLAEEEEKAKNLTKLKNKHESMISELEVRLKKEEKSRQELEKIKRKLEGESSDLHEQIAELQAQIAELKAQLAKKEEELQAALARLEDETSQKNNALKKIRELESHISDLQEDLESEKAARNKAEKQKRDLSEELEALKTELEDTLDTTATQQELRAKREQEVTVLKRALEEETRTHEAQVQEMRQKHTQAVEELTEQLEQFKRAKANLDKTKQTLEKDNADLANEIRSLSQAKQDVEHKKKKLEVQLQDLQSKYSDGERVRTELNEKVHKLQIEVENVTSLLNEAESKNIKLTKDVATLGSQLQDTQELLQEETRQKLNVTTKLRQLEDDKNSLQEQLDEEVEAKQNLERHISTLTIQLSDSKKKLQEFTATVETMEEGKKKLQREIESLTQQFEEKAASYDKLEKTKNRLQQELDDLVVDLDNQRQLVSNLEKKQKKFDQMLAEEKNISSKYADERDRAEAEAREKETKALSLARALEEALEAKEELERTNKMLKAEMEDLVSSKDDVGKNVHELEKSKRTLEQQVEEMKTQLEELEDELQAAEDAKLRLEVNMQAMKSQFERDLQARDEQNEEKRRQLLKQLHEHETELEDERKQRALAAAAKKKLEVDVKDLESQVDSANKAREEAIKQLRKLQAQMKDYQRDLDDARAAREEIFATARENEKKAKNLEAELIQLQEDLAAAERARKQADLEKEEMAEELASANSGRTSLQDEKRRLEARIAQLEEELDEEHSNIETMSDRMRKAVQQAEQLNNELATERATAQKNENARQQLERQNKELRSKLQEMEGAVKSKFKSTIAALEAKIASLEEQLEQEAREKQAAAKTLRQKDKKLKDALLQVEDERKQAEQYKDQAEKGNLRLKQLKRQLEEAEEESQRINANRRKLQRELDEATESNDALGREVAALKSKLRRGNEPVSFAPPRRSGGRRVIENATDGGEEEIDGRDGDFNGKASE
T2 sequence (P02612 whole entry partner): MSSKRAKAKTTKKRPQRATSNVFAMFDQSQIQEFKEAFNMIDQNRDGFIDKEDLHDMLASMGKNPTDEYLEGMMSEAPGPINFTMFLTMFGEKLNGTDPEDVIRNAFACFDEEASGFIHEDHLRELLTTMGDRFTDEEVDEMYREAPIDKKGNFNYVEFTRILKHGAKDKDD
T2 sequence (P02607 whole entry partner): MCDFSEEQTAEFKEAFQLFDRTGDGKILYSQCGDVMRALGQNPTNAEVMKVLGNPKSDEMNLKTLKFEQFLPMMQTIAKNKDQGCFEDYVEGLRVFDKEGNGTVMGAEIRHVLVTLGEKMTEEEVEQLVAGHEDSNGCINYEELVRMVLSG

B1: M110-(M1-E309): rat aorta M110 fragment, residues 1-309, released from GST-fusion protein with thrombin (protein)
chain: GSPGMKMADAKQKRNEQLKRWIGSETDLEPPVVKRQKTKVKFDDGAVFLAACSSGDTDEVLKLLHRGADINYANVDGLTALHQACIDDNVDMVKFLVENGANINQPDNEGWIPLHAAASCGYLDIAEFLIGQGAHVGAVNSEGDTPLDIAEEEAMEELLQNEVNRQGVDIEAARKEEERIMLRDARQWLNSGHISDVRHAKSGGTALHVAAAKGYTEVLKLLIQAGYDVNIKDYDGWTPLHAAAHWGKEEACRILVDNLCDMETVNKVGQTAFDVADEDILGYLEELQKKQNLLHSEKRDKKSPLIESTANMEA
For B1, in data set [1], the “concentration required to activate the MLC20 phosphatase activity maximally” value is on record as 0.1 nM and the “increase in PP1c activity towards MLC20 (maximal activation)” value is “about 3 fold”. Moreover, in data set [2], the binding to myosin entry was “did not bind to myosin”.
